Test [1] has as its target Human Nectin-4 (human) (UniProt Q96NY8). The test is described as follows: SPR (Biacore 8K), Nectin-4 amine-coupled on CM5 chip, compound as analyte, multi-cycle kinetics, 1:1 model. (Surface plasmon resonance follows binding to a sensor surface in real time, without labels.)
The target is the same in test [2]. The test can be described thus: SPR (Biacore 8K), Nectin-4 amine-coupled on CM5 chip, compound as analyte, multi-cycle kinetics, 1:1 model; average of two tests.

Starred links: 1 amine or outer side, 2 acyl side, 3 side chain; linkers in the order of their positions; H or OH if unused. Positions of bridges follow the written chain, without caps; N, C: chain ends. Non-standard residues stand in square brackets, D forms with d. No end group written: not given here. TATA = O=C(CC[*:1])N1CN(C(=O)CC[*:2])CN(C(=O)CC[*:3])C1; 1Nal = N[C@@H](Cc1cccc2ccccc12)C(=O)O; Hyp = O=C(O)[C@@H]1C[C@@H](O)CN1; hArg = N=C(N)NCCCC[C@H](N)C(=O)O; Pen = CC(C)(S)[C@H](N)C(=O)O; hCys = N[C@@H](CCS)C(=O)O; βAla = NCCC(=O)O; Sar = CNCC(=O)O

Chain of Human Nectin-4 (human) (Q96NY8 32-349 limits assumed): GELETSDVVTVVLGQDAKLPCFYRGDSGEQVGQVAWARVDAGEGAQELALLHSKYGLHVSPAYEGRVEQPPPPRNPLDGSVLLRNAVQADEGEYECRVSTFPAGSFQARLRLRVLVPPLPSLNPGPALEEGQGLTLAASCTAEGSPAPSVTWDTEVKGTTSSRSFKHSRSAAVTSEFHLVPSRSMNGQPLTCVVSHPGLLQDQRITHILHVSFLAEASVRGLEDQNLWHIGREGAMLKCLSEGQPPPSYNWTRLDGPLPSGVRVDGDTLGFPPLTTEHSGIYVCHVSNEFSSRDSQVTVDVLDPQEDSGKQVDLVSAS

B1: Acetate salt of PDC_1 (peptide)
peptide: [βAla][Sar][Sar][Sar][Sar][Sar][Sar][Sar][Sar][Sar][Sar]K[hArg]DCP[1Nal][dD][Pen]M[hArg]DWSTP[Hyp]WC-NH2
modifications: lactam 12-14; linker 15-19-29 via TATA; also: drug-linker INT_1 coupled, site not given here, acetate salt
With B1, the Kd in test [1] was found to be 1.4 nM.

B2: Acetate salt of PDC_3 (peptide)
peptide: [βAla][Sar][Sar][Sar][Sar][Sar][Sar][Sar][Sar][Sar][Sar]K[Sar]DCP[1Nal][dD][Pen]M[hArg]DWSTP[Hyp]W[hCys]
modifications: not fully specified (C-terminus); cysteine pairing not given here; also: further groups not given here, drug-linker INT_1 coupled, site not given here, acetate salt
B2 showed a Kd in test [1] of 4.13 nM.

B3: Acetate salt of PDC_2 (peptide)
peptide: [βAla][Sar][Sar][Sar][Sar][Sar][Sar][Sar][Sar][Sar][Sar]K[Sar]DCP[1Nal][dD][Pen]M[hArg]DWSTP[Hyp]WC-NH2
modifications: lactam 12-14; linker 15-19-29 via TATA; also: drug-linker INT_1 coupled, site not given here, acetate salt
In turn, B3 registered a dissociation constant Kd in test [2] of 0.43 nM.

For orientation: Kd means a measure of binding affinity in units of concentration. The low end stands for tighter binding, the high end for weaker binding.

(Values after patent publication US20240424120A1.)
